Results from publication PMC4585971, “Functional Analyses of the Toxoplasma gondii DNA Gyrase Holoenzyme: A Janus Topoisomerase with Supercoiling and Decatenation Abilities” (Scientific Reports, 2015).

Key:
[1] = test system: Nc1ncnc2c1ncn2[C@@H]1O[C@H](COP(=O)(O)OP(=O)(O)OP(=O)(O)O)[C@@H](O)[C@H]1O; experiment: purified protein; details: Mg2+
EcGyrB = biological target: T1, EcGyrB (Escherichia coli, UniProt P0AES6); experiment: native PAGE, nucleotide-induced dimerisation ([…] AMPPNP); format: binding
T1 construct: gene gyrB

| Compound | Km [1] [µM] | native PAGE, nucleotide-induced dimerisation (4 mM AMPPNP) (EcGyrB) |
| --- | --- | --- |
| EcGyrB (Escherichia coli K-12) | 540 ± 50 | – |
| Nc1ncnc2c1ncn2[C@@H]1O[C@H](CO[P@](=O)(O)O[P@](=O)(O)NP(=O)(O)O)[C@@H](O)[C@H]1O [AMPPNP] | – | This dimerisation pattern (monomer in the absence of nucleotide, dimer in the presence) is the same as for EcGyrB. |
